According to article PMC8435816 (Synthetic and Systems Biotechnology, 2021):

Biological target: the molecule itself
Experiment: negative-stain transmission electron microscopy

B1: T. maritima encapsulin with His6 insert with Strep-tag (TmEnc-STII) (natural protein, Thermotoga maritima)
chain: MEFLKRSFAPLTEKQWQEIDNRAREIFKTQLYGRKFVDVEGPGGGGGGHHHHHHGGGGGYGWEYAAHPLGEVEVLSDENEVVKWGLRKSLPLIELRATFTLDLWELDNLERGKPNVDLSSLEETVRKVAEFEDEVIFRGCEKSGVKGLLSFEERKIECGSTPKDLLEAIVRALSIFSKDGIEGPYTLVINTDRWINFLKEEAGHYPLEKRVEECLRGGKIITTPRIEDALVVSERGGDFKLILGQDLSIGYEDREKDAVRLFITETFTFQVVNPEALILLKF
binding result: binds
